From US20250042997A1 (PHYLAXIS BIOSCIENCE, published 2025)
Numbering of substitutions follows the chain as printed. Like-named read-outs stand apart in the source and are kept apart here. Each block holds one binder with its values, some of them ahead of it.

Key:
[1] = target: T1, human Siglec-8 (full-length, on transfected CHO or 293 cells, or native on human eosinophils) (human, UniProt Q9NYZ4 17-499); assay: flow cytometry on CHO cells transiently transfected with full-length human Siglec-8; A647 anti-human Fc-gamma secondary; Mean RL1-H
Method: (§1) Binding of the anti-human Siglec-8 VHHs, B12, D1, E2, and G2, as a bivalent VHH-hIgG1-xELL-Fc (VHH of SEQ ID NO: 49, 55, 61, and 1, respectively linked to an Fe xELL via linker 2, these constructs are also designated cx8982, cx8983, cx8984, and cx10382, respectively) was determined by flow cytometry using CHO cells that had been transiently transfected with full-length human Siglec-8. Binding specificity was assessed using untransfected (UT) CHO cells as a control. For the binding assays, 50,000 Siglec-8 CHOs or UT CHOs were seeded in a 96-well plate and a titration of anti-Siglec8-VHH-xELL was added in FACS Buffer (PBS 1% BSA, 0.1% NaN3 pH 7.4) incubating for 30 minutes at 4° C. After washing, the plates were incubated with an A647-conjugated anti-human Fcγ specific secondary antibody (Jackson ImmunoResearch) diluted 1:2000 in FACS buffer for 30 minutes at 4° C. The plates were washed, and binding was determined by flow cytometry quantitating anti-human A647 mean fluorescent intensity using an Intellicyt iQue Plus.
(§2) The binding was specific to Siglec-8 as there was no detectable binding to untransfected CHO cells for any of the tested constructs.

[2] = target: T1, human Siglec-8 (full-length, on …); assay: flow cytometry, CHO cells transiently transfected with full-length human Siglec-8 (apparent affinity)
Method: as §1, §2

[3] = target: T1, human Siglec-8 (full-length, on …); assay: flow cytometry on human eosinophils (CD16- CCR3+) from whole blood; anti-human AF647 secondary; MFI
Text: To determine if increasing the valency of Siglec-8 antibodies could enhance agonist activity, the parental llama B12, D1 and E2 VHH sequences were used to generate tetravalent (Tet-B12 (cx8467; SEQ ID NO:50 linked to an Fe), Tet-D1 (cx8469; SEQ ID NO:56 linked to an Fe), and Tet-E2 (cx8463; SEQ ID NO:62 linked to an Fc)) and hexavalent (Hex-B12 (cx8466; SEQ ID NO:51 linked to an Fe), Hex-D1 (cx8523; SEQ ID NO:57 linked to an Fe), and Hex-E2 (cx8522; SEQ ID NO:165 linked to an Fc)), Siglec8-VHH-Fc antibodies linked to a reduced effector function xELL human Fc region via linker 2. The bivalent (Bi-B12 (cx8982), Bi-D1 (cx8983) and Bi-E2 (cx8984)), tetravalent, and hexavalent Siglec8-VHH-Fc antibodies were assessed by flow cytometry for binding to eosinophils (CD16⁻ CCR3⁺). Cells were isolated from whole blood by centrifugation, washed twice with 2% FBS PBS, and resuspended in 1×RBC lysis buffer for 10 minutes at room temperature (RT), washed once in 2% FBS PBS and treated with a second RBC lysis step and washed twice with 2% FBS. Cells were seeded at 200 k/well and resuspended in Human FC block for 10 minutes at RT. Cells were spun down and then resuspended in titrated test articles starting at 200 nM 1:4 and incubated for 30 minutes at 4° C. before being washed twice and resuspended in secondary mixture (2*; anti-CCR3 FITC, anti-human AF647, PI, anti-CD16 BV605) and incubated for 30 minutes at 4° C., washed twice, and bound antibodies were detected via flow cytometry (Novocyte).
As shown in FIG. 2A-2C, bivalent, tetravalent, and hexavalent Siglec8-VHH-Fc antibodies B12 (FIG. 2A), D1 (FIG. 2B) and E2 (FIG. 2C) bound to eosinophils. The calculated affinity was similar between the bivalent, tetravalent, and hexavalent hzSiglec8-VHH-Fc antibodies. The observed Bmax was reduced with increasing valency as anticipated, due the fact that the Fc portion of the antibody was detected in this assay and the ratio of Fc regions to anti-Siglec-8 binding domains is inverse to valency. No binding was observed on other granulocyte populations (CD16⁺ CCR3⁻).

[4] = target: T1, human Siglec-8 (full-length, on …); assay: flow cytometry on 293 cells transiently transfected with full-length human Siglec-8; A647 anti-human Fc-gamma secondary; median fluorescence, nonlinear fit; table under the graph
Method: (§3) The binding of the lmG2 and humanized versions (further including Siglec8 hzG2v14), formatted as monomeric VHH-hIgG1 fusions proteins using a non-dimerizing human IgG1 Fe variant region lacking a hinge Fe NNT, was assessed by flow cytometry using 293 cells that had been transiently transfected with full-length human Siglec-8 and detected with an anti-human AF647 secondary antibody. Binding specificity was assessed using untransfected 293 cells as a control. For the binding assays, Siglec-8 293 cells or untransformed 293 cells were seeded in a 96 well U-bottom plate with 50 k cells/well in FACS buffer and incubated at 4° C. with a titration of anti-Siglec8-VHH-NNT for 30 minutes. After washing, the plates were incubated with an A647-conjugated anti-human Fcγ specific secondary antibody diluted 1:10,000 in FACS buffer for 20 minutes at 4° C. The plates were washed, and binding was determined by flow cytometry quantitating anti-human A647 median fluorescent intensity. The maximum specific binding (Bmax) and affinity (Kd) for was determined from the flow cytometry binding data using a nonlinear fit model.

[5] = target: T1, human Siglec-8 (full-length, on …); assay: flow cytometry on 293 cells transiently transfected with full-length human Siglec-8; A647 anti-human Fc-gamma secondary; median fluorescence, nonlinear fit; table under the graph (Kd column without unit, concentration axis nM Ab)
Method: as §3

[6] = target: T1, human Siglec-8 (full-length, on …); assay: as above; remark: listed apart in the source
Method: as §3

[7] = target: T1, human Siglec-8 (full-length, on …); assay: flow cytometry on 293 cells transiently transfected with full-length human Siglec-8; A647 anti-human Fc-gamma secondary; median fluorescence, nonlinear fit; table under the graph; remark: listed apart in the source
Method: as §3

[8] = target: T1, human Siglec-8 (full-length, on …); assay: as above; remark: listed apart in the source
Method: as §3

[9] = target: T1, human Siglec-8 (full-length, on …); assay: flow cytometry on 293 cells transiently transfected with full-length human Siglec-8; A647 anti-human Fc-gamma secondary; median fluorescence, nonlinear fit; table under the graph (Kd column without unit, concentration axis nM Ab); remark: listed apart in the source
Method: as §3

T1 sequence (Q9NYZ4 17-499): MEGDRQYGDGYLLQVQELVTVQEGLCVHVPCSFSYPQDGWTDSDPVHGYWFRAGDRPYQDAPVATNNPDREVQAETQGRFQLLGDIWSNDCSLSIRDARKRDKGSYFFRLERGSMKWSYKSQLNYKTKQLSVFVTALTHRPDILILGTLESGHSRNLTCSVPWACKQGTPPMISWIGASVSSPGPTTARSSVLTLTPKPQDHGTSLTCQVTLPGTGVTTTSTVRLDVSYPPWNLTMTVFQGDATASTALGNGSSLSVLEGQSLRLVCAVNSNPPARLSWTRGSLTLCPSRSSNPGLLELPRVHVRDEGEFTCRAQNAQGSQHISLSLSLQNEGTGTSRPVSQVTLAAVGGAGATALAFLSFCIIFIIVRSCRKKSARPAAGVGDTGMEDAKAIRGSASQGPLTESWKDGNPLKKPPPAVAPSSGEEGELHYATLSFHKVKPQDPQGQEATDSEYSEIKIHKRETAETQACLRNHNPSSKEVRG

B2: Siglec8 hzG2v17, monomeric VHH-hIgG1 fusion (Fc NNT) (Fc fusion)
chain: EVQLLESGGGEVQPGGSLRLSCAASGSISIFSIYVVAWYRQAPGKEREWVAFIQRGGTANYAESAKGRFTISRDNAKNTVYLQMSSLRAEDTAVYYCNYINSDNEIGGPWGQGTLVTVKP
notes: Monomeric format; not shown: non-dimerizing human IgG1 Fc variant lacking a hinge (Fc NNT)
Bmax [4]: 1.17e+06 Median (anti-human A647) | Kd [5]: 146 pM

B3: Siglec8 hzG2v32, monomeric VHH-hIgG1 fusion (Fc NNT) (Fc fusion)
chain: B2 chain with P14T, I33M, E46Q, A89P
notes: as for B2
Kd [6]: 64.3 pM | Bmax [7]: 1.45e+06 Median (anti-human A647)

B5: Siglec8 hzG2v18, monomeric VHH-hIgG1 fusion (Fc NNT) (Fc fusion)
chain: B2 chain with I33K
notes: as for B2
Bmax [4]: 1.05e+06 Median (anti-human A647) | Kd [5]: 263 pM

B7: Siglec8 hzG2v33, monomeric VHH-hIgG1 fusion (Fc NNT) (Fc fusion)
chain: B2 chain with P14T, I33M, E46Q, E90D
notes: as for B2
Kd [6]: 97.9 pM | Bmax [7]: 1.39e+06 Median (anti-human A647)

B10: anti-Siglec8-B12-xELL, bivalent VHH-hIgG1-xELL-Fc (Fc fusion)
chain: QVQVVESGGGLVQPGGSLRLSCAASGSTSLLNAMAWYRQAPGKERELVAAISSGGGTYYADSVKGRFTISTNNAKNTLYLQMNSLKPEDTAMYYCAPGPNYSDYEEINWGQGTQVTVKPGGGGDKTHTCPPCPAPGGPSVFLFPPKPKDTLMISRTPEVTCVVVDVSHEDPEVKFNWYVDGVEVHNAKTKPREEQYNSTYRVVSVLTVLHQDWLNGKEYKCKVSNKALPAPIEKTISKAKGQPREPQVYTLPPSRDELTKNQVSLTCLVKGFYPSDIAVEWESNGQPENNYKTTPPVLDSDGSFFLYSKLTVDKSRWQQGNVFSCSVMHEALHNHYTQKSLSLSPGK
notes: Homodimer through the Fc; also called cx8982; Bi-B12
EC50 (read off the curve) [1]: ~400 pM | Kd [2]: 367 pM | EC50 (read off the curve) [3]: ~100 pM

Continued, values first:

EC50 (read off the curve) [1]: ~400 pM | Kd [2]: 331 pM | EC50 (read off the curve) [3]: ~100 pM
B1: anti-Siglec8-E2-xELL, bivalent VHH-hIgG1-xELL-Fc (Fc fusion)
chain: QVQLVESGGGLVQPGGSLRLSCATSGIIFTSNVINWYRQAPGKQREFVAFITSITSGQSTMYADAVKGRFTVSRDNDKNIGYLQMTSLQPEDTARYVCNVGAYWGQGTQVTVKPGGGGDKTHTCPPCPAPGGPSVFLFPPKPKDTLMISRTPEVTCVVVDVSHEDPEVKFNWYVDGVEVHNAKTKPREEQYNSTYRVVSVLTVLHQDWLNGKEYKCKVSNKALPAPIEKTISKAKGQPREPQVYTLPPSRDELTKNQVSLTCLVKGFYPSDIAVEWESNGQPENNYKTTPPVLDSDGSFFLYSKLTVDKSRWQQGNVFSCSVMHEALHNHYTQKSLSLSPGK
notes: Homodimer through the Fc; also called cx8984; Bi-E2

Bmax [4]: 1.24e+06 Median (anti-human A647) | Kd [5]: 41900 pM
B4: hzG2v19 (Fc fusion)
VHH: B2 chain with I33S, V35A
notes: also called Siglec8 hzG2v19; monomeric VHH-hIgG1 fusion (Fc NNT); not shown: The non-dimerizing, hinge-less human IgG1 Fc variant (Fc NNT) and any linker to it

Bmax [4]: 1.1e+06 Median (anti-human A647) | Kd [5]: 256000 pM
B6: hzG2v21 (Fc fusion)
VHH: B2 chain with I33S, V35A, V36M, A37S
notes: also called Siglec8 hzG2v21; monomeric VHH-hIgG1 fusion (Fc NNT); not shown: The non-dimerizing, hinge-less human IgG1 Fc variant (Fc NNT) and any linker to it

EC50 (read off the curve) [1]: ~500 pM | Kd [2]: 427 pM | EC50 (read off the curve) [3]: ~60 pM
B8: anti-Siglec8-D1-xELL, bivalent VHH-hIgG1-xELL-Fc (Fc fusion)
chain: QVQLVESGGGLVQPGGSLRLSCAASGSIASIHGMGWYRQAPGKERELVAAIAGEGSTYYADSVKGRFTISRDFAKNTLYLQMNNLKAEDTAMYYCANNDERDDYWGQGTQVTVKPGGGGDKTHTCPPCPAPGGPSVFLFPPKPKDTLMISRTPEVTCVVVDVSHEDPEVKFNWYVDGVEVHNAKTKPREEQYNSTYRVVSVLTVLHQDWLNGKEYKCKVSNKALPAPIEKTISKAKGQPREPQVYTLPPSRDELTKNQVSLTCLVKGFYPSDIAVEWESNGQPENNYKTTPPVLDSDGSFFLYSKLTVDKSRWQQGNVFSCSVMHEALHNHYTQKSLSLSPGK
notes: Homodimer through the Fc; also called cx8983; Bi-D1

EC50 (read off the curve) [1]: ~300 pM | Kd [2]: 268 pM
B9: anti-Siglec8-G2-xELL, bivalent VHH-hIgG1-xELL-Fc (Fc fusion)
chain: QVTLKESGGGLVRTGGSLRLSCAASGSISIFSMYVVAWYRQAPGKQREWVAFIQRGGTANYADSAKGRFTISRDNAKNTVYLQMASLKPDDTAVYYCNYINSDNEIGGPWGQGTQVTVKPGGGGDKTHTCPPCPAPGGPSVFLFPPKPKDTLMISRTPEVTCVVVDVSHEDPEVKFNWYVDGVEVHNAKTKPREEQYNSTYRVVSVLTVLHQDWLNGKEYKCKVSNKALPAPIEKTISKAKGQPREPQVYTLPPSRDELTKNQVSLTCLVKGFYPSDIAVEWESNGQPENNYKTTPPVLDSDGSFFLYSKLTVDKSRWQQGNVFSCSVMHEALHNHYTQKSLSLSPGK
notes: Homodimer through the Fc; also called cx10382

Bmax [8]: 1.28e+06 Median (anti-human A647) | Kd [6]: 63.7 pM | Bmax [4]: 1.36e+06 Median (anti-human A647) | Kd [5]: 114 pM | Bmax [7]: 1.15e+06 Median (anti-human A647) | Kd [9]: 124 pM
B11: llama anti-Siglec8-G2 VHH (lmG2), monomeric VHH-hIgG1 fusion (Fc NNT) (Fc fusion)
chain: QVTLKESGGGLVRTGGSLRLSCAASGSISIFSMYVVAWYRQAPGKQREWVAFIQRGGTANYADSAKGRFTISRDNAKNTVYLQMASLKPDDTAVYYCNYINSDNEIGGPWGQGTQVTVKP
notes: Monomeric format; also called parental clone; not shown: non-dimerizing human IgG1 Fc variant lacking a hinge (Fc NNT)
